In the Human Domainome abundance scans (Beltran et al. 2025):

B1: REST corepressor 3, residues 87 to 134; numbered along this chain, Q9P2K3 (parent)
chain: DEWTVEDKVLFEQAFSFHGKSFHRIQQMLPDKTIASLVKYYYSWKKTR
B2: Zinc finger homeobox protein 4, residues 2086 to 2141; numbered along this chain, Q86UP3 (parent)
chain: RPRTRITDDQLKILRAYFDINNSPSEEQIQEMAEKSGLSQKVIKHWFRNTLFKERQ

Variants of: B1
Experiment: abundance fitness (aPCA) (normalised: wild type 0, dead -1); higher = more abundant; growth selection in yeast, the domain comes from the species named
Settings: Homo sapiens

Abundance fitness, by site and new letter:
E2: N 0.294; V -0.859; K 0.3; A -0.797; Q -0.486; S -0.441; T -0.302; R -0.107; Y -0.208; H -0.265; L -0.593; G 0.037; C -0.116
W3: C -0.776; L -0.858; S -0.651; G -0.912; I -0.465; R -1.02; V -0.677; F -0.264; M -0.629
V5: A -0.137; E 0.388; G -0.658; F -0.222; I -0.316; S -0.3; Q -0.154; T -0.436; P -0.393; D -0.104; C -0.478; Y 0.218; L -0.458; K 0.208; M -0.612; R -0.163
E6: Q 0.293; A -0.388; D -0.466; R -0.273; V -0.777; I -0.58; T -0.323; L -0.614; F -0.542
T4: N -0.257; S -0.198; L -0.727; R -0.634; V -0.756; P -0.83; G -0.84; D -0.53
D7: E -0.617; G -0.571; A -0.811; N -0.821; L -0.796; P -0.411
D1: E -0.195; G 0.138

Variants of: B2
Experiment: as above
Settings: Homo sapiens

Abundance fitness of substitutions, site by site:
E54: H -0.238; N -0.149; D -0.102; K -0.169; A -0.082; G -0.17; C -0.205; T -0.189; V -0.057; F -0.231; P -0.182; S -0.047; W -0.215; R -0.1; M -0.375; L -0.035; Q -0.206; I -0.403
R48: I -0.164; A -0.047; H 0.049; D -0.09; M -0.095; G -0.042; P -0.444; E -0.153; T 0.1; W -0.185; N 0.125; Q 0.056; S -0.112; F -0.142; Y -0.289; V -0.111; L -0.04; C -0.056
Q56: H -0.363; R -0.024; N -0.083; A -0.646; E -0.77; G -0.439; T -0.07; C -0.802; K 0.295; M -0.12; V -0.568; S -0.502; W -0.492; L -0.214
T50: S -0.053; Q 0.035; E 0.051; M 0.065; K -0.016; F -0.182; N 0.007; G -0.079; W -0.109; Y -0.288; I -0.119; R -0.032; A -0.013; L -0.061; C -0.213; D 0.102
K44: T -0.017; M -0.098; A 0.038; E -0.031; Q -0.362; D 0.068; G 0.001; H -0.042; C -0.204; I -0.25; S -0.069; V -0.186; P -0.716; W -0.312; F -0.023; N -0.042; R -0.01; L -0.204; Y 0.049
L51: E -0.127; V 0.04; Q 0.126; T -0.065; M 0.005; R -0.092; K -0.043; N -0.12; Y -0.098; S -0.1; I -0.237; H -0.071; F -0.257; G -0.134; W -0.163; P -0.125; A 0.007; D -0.047
W46: V -0.221; A -0.313; E -0.141; Q -0.483; F -0.237; M -0.376; S -0.406; Y 0.001; P -0.698; T -0.203; I -0.331; G -0.655; R -0.516; D -0.297; L -0.239; N -0.762; K -0.737
F47: K -0.558; P -0.951; Y -0.096; H -0.146; S -0.287; M -0.097; Q -0.342; L -0.149; I -0.416; W -0.197; N -0.398; C -0.134; R -0.506; T -0.234; D -0.708; V -0.041; G -0.753; E -0.517
K41: P -0.307; V -0.124; S -0.141; G -0.042; T -0.093; Q -0.235; M -0.146; H 0.033; L -0.174; W -0.123; I -0.106; F -0.02; N -0.393
R55: S -0.011; G -0.038; A -0.025; V -0.204; D -0.163; T -0.158; H 0.256; E -0.059; M -0.198; Y -0.431; L -0.091; F -0.125; Q -0.028; P -0.118; C 0.016; W -0.215; I -0.632; N -0.255
F52: D -0.085; S -0.067; T 0.052; K 0.068; C 0.13; H 0.018; W -0.174; Y -0.02; N 0.134; M -0.131; V 0.062; L -0.005; Q 0.006; G 0.035; A -0.029; I 0.014; R 0.184
V42: Q -0.037; A 0.012; C -0.002; P -0.478; I -0.057; E 0.031; Y -0.065; M -0.021; N -0.212; F 0.007; W -0.112; S -0.059; D 0.093; K -0.079; T -0.057; L -0.085; H -0.069; R 0.086; G -0.077
H45: E 0.09; K 0.038; A -0.018; G -0.029; V -0.059; I -0.114; D 0.006; Q -0.006; W 0.023; Y -0.034; R 0.08; P -0.207; F -0.082; T 0; M -0.059; N -0.061; S -0.004; C -0.181; L -0.042
N49: T 0.025; K 0.123; R -0.009; I 0.019; A -0.023; D 0.085; Y -0.169; E 0.079; S -0.022; P -0.383; H 0.141; W -0.12; Q -0.155; L -0.172
K53: Y -0.064; C -0.201; H 0.023; G -0.071; T -0.042; L 0.06; S 0.016; N -0.023; W -0.131; V -0.157; I 0.141; P -0.285; M -0.114; Q -0.072; F -0.284; D -0.041
I43: Q -1.02; H -1.05; W -0.928; F -0.607; S -0.994; C -0.367; M -0.541; K -1.19; V -0.073; N -1.02; Y -0.8; P -1.09; D -0.876; G -1.24; A -0.488; L -0.195; E -0.946
